From US20120039802A1 (published 2012) come the findings set out here.

The target in assay [1] is T1, cMet-Fc fusion protein (extracellular domain of the cMet receptor expressed as an Fc-fusion protein) (human, UniProt P08581 25-932).
T1 construct: extracellular domain; also called soluble cMet-Fc-fusion protein; soluble cMet receptor; not shown: Fc part
The experiment in a line: fluorescence polarization, 20 nM fluorescein peptide, cMet-Fc varied. As for the experimental part:
(§1) Fluorescence anisotropy measurements were performed in 384-well microplates in a volume of 10 μL in binding buffer (PBS, 0.01% Tween-20, pH 7.5) using a Tecan Polarion fluorescence polarization plate reader ([…]). […] Binding mixtures were equilibrated for 10 minutes in the microplate at 30 C before measurement. The observed change in anisotropy was fit to the equation below via nonlinear regression to obtain the apparent KD. This equation (1) assumes that the synthetic peptide and cMet form a reversible complex in solution with 1:1 stoichiometry.

Assay [2] concerns the target T2, mouse cMet (mouse, UniProt P16056 25-931, limits assumed).
T2 construct: Construct not described; also called Kd (mouse) target
Put plainly: fluorescence polarization. A general note: Polarisation of emitted light reports the rotation of a fluorescent probe.

The target in assay [3] is T2, mouse cMet. Put plainly: fluorescence polarization, mouse target. As for the experimental part: as §1

fluorescein = fluorescein label on the side chain of the C-terminal Lys

T2 sequence (P16056 25-931 limits assumed): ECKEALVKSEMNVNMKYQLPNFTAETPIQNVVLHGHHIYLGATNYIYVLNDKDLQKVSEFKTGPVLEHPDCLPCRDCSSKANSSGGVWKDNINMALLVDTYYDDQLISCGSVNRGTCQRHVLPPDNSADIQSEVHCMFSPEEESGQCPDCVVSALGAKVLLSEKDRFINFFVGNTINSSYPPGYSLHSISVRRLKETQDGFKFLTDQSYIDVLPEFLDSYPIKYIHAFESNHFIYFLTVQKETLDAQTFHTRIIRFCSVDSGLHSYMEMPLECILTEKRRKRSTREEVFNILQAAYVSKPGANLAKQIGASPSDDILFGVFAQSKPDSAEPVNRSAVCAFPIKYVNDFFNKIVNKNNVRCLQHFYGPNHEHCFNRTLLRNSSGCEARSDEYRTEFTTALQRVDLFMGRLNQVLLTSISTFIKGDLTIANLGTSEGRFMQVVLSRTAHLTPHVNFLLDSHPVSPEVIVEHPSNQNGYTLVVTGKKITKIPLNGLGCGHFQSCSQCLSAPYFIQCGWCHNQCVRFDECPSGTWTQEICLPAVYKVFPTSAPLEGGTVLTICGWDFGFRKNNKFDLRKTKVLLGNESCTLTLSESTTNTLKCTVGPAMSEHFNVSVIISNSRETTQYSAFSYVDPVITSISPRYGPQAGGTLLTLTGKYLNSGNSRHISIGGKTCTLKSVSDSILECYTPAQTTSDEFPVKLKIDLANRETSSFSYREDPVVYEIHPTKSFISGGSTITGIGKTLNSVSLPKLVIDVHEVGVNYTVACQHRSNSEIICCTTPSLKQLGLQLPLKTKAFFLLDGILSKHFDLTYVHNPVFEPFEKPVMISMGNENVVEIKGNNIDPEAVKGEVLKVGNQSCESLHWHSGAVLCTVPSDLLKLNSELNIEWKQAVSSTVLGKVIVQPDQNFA
T1 sequence (P08581 25-932): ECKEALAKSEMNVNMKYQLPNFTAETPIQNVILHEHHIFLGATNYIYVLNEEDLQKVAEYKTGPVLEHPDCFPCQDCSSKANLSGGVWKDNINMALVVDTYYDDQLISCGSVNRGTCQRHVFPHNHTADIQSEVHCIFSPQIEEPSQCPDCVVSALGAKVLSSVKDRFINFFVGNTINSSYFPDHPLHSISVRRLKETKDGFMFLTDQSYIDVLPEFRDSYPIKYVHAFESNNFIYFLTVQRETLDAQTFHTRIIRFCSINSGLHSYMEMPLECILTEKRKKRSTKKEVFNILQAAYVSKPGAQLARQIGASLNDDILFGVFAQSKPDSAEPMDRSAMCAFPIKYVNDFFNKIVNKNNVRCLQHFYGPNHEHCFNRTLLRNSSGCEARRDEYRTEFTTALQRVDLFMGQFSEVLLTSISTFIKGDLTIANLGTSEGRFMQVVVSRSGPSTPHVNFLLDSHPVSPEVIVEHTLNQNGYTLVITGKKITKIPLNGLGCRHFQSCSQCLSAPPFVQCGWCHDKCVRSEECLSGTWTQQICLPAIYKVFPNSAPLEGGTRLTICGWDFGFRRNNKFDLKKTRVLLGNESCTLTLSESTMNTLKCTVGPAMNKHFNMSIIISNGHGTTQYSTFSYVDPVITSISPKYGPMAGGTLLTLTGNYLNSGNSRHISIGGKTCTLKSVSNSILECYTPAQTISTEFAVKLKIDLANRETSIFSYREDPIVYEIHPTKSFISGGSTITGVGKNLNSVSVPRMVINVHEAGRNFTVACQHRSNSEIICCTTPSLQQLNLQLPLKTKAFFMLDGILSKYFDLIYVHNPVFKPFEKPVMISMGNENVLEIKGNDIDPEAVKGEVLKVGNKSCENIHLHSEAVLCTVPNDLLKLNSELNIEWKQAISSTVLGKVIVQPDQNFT

By Kd is commonly meant the constant that tells how readily two partners part at equilibrium. Lower therefore signals a tighter complex. Molecule Ac-AQPYYELQDADMLLVVALLSTGGGGK(fluorescein)-NH2 [94-F07 synthetic fluorescein-labeled peptide (SEQ ID NO: 458)] came in with a Kd in assay [1] of 3750 nM. Same read-out and setting: the result for Ac-AGNWICTGPPSFGCWYHGTGGGK(fluorescein)-NH2 (cysteine pairing not given here) [331-G06 synthetic fluorescein-labeled peptide (SEQ ID NO: 078)] reads 2900 nM; that for Ac-AQHWDYDSGSDFWFPVFFLEHHGGGK(fluorescein)-NH2 [79-B02 synthetic fluorescein-labeled peptide (SEQ ID NO: 475)], 1900 nM; that for Ac-AQVGTAEAIMFSDVEDTGVHKFGGGK(fluorescein)-NH2 [103-G08 synthetic fluorescein-labeled peptide (SEQ ID NO: 459)], over 2000 nM. For the molecule Ac-GDYSECFFEPDSFEVKCYDRDPGGGK(fluorescein)-NH2 (cysteine pairing not given here) [545-H12 synthetic fluorescein-labeled peptide (SEQ ID NO: 399)], the binding result in assay [2] is “no binding”. Besides, in assay [1], the Kd is 1150 nM. Regarding Ac-GDYDYCDFDLETYIPECHSYDPGGGK(fluorescein)-NH2 (cysteine pairing not given here) [546-G02 synthetic fluorescein-labeled peptide (SEQ ID NO: 390)], the affinity in assay [1], expressed as Kd, was 1500 nM. In turn, Ac-AQHSVQRQMDVWMPVQFMAGFTGGGK(fluorescein)-NH2 [02-B08 synthetic fluorescein-labeled peptide (SEQ ID NO: 467)] showed a Kd in assay [1] of over 2000 nM.

Ac-AQREVEEPYWYLDFLSSWRMHEGGGK(fluorescein)-NH2 [524-E09 synthetic fluorescein-labeled peptide (SEQ ID NO: 451)]: the Kd in assay [1] turned out to be 2000 nM. In the case of Ac-AQWPHDGLVHWGEVIMLRFGGGK(fluorescein)-NH2 [117-F04 synthetic fluorescein-labeled peptide (SEQ ID NO: 479)], binding in assay [1] was characterised by a dissociation constant (Kd) of 1700 nM. Take Ac-GSPEMCMMFPFLYPCNHHAPGGGK(fluorescein)-NH2 (cysteine pairing not given here) [548-F07 synthetic fluorescein-labeled peptide (SEQ ID NO: 369)]: in assay [2], the binding result is reported as “no binding”. The molecule Ac-AQVEDMATVHFKFNPATHEVIWGGGK(fluorescein)-NH2 [524-H02 synthetic fluorescein-labeled peptide (SEQ ID NO: 492)] registered a Kd in assay [1] of 800 nM.

For Ac-AQSPYIFPIDDSGRQIFVIQWGGGGK(fluorescein)-NH2 [76-D09 synthetic fluorescein-labeled peptide (SEQ ID NO: 463)], the Kd in assay [1] was over 2000 nM.

For the molecule Ac-GSFFPCWRIDRFGYCHANAPGGGK(fluorescein)-NH2 (cysteine pairing not given here) [551-H10 synthetic fluorescein-labeled peptide (SEQ ID NO: 370)], in assay [2], the binding result is “no binding”. In assay [1], this molecule registered a Kd of 220 nM. As to Ac-AGSWHCAGPPSFECWEFGTGGGK(fluorescein)-NH2 (cysteine pairing not given here) [331-G04 synthetic fluorescein-labeled peptide (SEQ ID NO: 055)], the Kd in assay [3] stood at 1100 nM; in assay [1] it was 900 nM. On to Ac-AQDLKPWTAGWEPPWLWTDRGPGGGK(fluorescein)-NH2 [104-C09 synthetic fluorescein-labeled peptide (SEQ ID NO: 461)], for which, in assay [1], the Kd was over 2000 nM. In the case of Ac-AQHQYGQMMVLHIQYDMGEFIPGGGK(fluorescein)-NH2 [117-F08 synthetic fluorescein-labeled peptide (SEQ ID NO: 462)], the Kd in assay [1] was over 2000 nM. On the same count and under the same terms, the result for Ac-AQQASRFTFTDGDSYWWFEDFGGGK(fluorescein)-NH2 [525-A07 synthetic fluorescein-labeled peptide (SEQ ID NO: 449)] reads 6900 nM. Molecule Ac-AQIQGIQKTEQGEFYWFNWFPAGGGK(fluorescein)-NH2 [528-F05 synthetic fluorescein-labeled peptide (SEQ ID NO: 450)] returned a Kd in assay [1] of 2700 nM. Same read-out and setting: the result for Ac-AQKETWEFFDIVYGSGWKFNSPGGGK(fluorescein)-NH2 [116-H02 synthetic fluorescein-labeled peptide (SEQ ID NO: 466)] reads over 2000 nM; that for Ac-AGSIQCVGPPSFECTPYGTGGGK(fluorescein)-NH2 (cysteine pairing not given here) [335-D11 synthetic fluorescein-labeled peptide (SEQ ID NO: 074)], 3300 nM; that for Ac-AQVGSPMLPSWFSFEANWSSGGGK(fluorescein)-NH2 [95-A11 synthetic fluorescein-labeled peptide (SEQ ID NO: 456)], 2300 nM. Still for that read-out and setting: the result for Ac-AQRPEAHYKLAMSYPIIPRTKTGGGK(fluorescein)-NH2 [96-H12 synthetic fluorescein-labeled peptide (SEQ ID NO: 452)] reads over 2000 nM. For Ac-GDDFHCEFIDDYQSEICYFNDPGGGK(fluorescein)-NH2 (cysteine pairing not given here) [333-C03 synthetic fluorescein-labeled peptide (SEQ ID NO: 391)], in assay [1], binding was put at a Kd of 1800 nM. Ac-AGEWWCHGPPEFLCYWTGTGGGK(fluorescein)-NH2 (cysteine pairing not given here) [331-F01 synthetic fluorescein-labeled peptide (SEQ ID NO: 072)] gave a Kd in assay [1] of 980 nM. For Ac-AQGFELWVDHTRNFFIAISPGGGK(fluorescein)-NH2 [127-A07 synthetic fluorescein-labeled peptide (SEQ ID NO: 469)], the Kd in assay [1] was 2400 nM. Ac-AQEWEREYFVDGFWGSWFGIPHGGGK(fluorescein)-NH2 [130-E10 synthetic fluorescein-labeled peptide (SEQ ID NO: 472)]: the dissociation constant Kd in assay [3] turned out to be 7650 nM; in assay [1], 2600 nM. As for Ac-AQRWSSPGMSQSFVLEWKWNDNGGGK(fluorescein)-NH2 [118-A08 synthetic fluorescein-labeled peptide (SEQ ID NO: 453)], in assay [1], the Kd is over 2000 nM. On to Ac-GSWIICWWDNCGSSAPGGGK(fluorescein)-NH2 (cysteine pairing not given here) [571-C05 synthetic fluorescein-labeled peptide (SEQ ID NO: 001)], for which the figures for the Kd in assay [3] and in assay [1] were 3500 nM and 200 nM, respectively. In assay [1], Ac-AQVPDWLSAVVIEKLIEYGMMVGGGK(fluorescein)-NH2 [93-C08 synthetic fluorescein-labeled peptide (SEQ ID NO: 464)] had a Kd of over 2000 nM.

With Ac-AQYDTWVFQFIHEVPGELVAMQGGGK(fluorescein)-NH2 [94-E08 synthetic fluorescein-labeled peptide (SEQ ID NO: 454)], the affinity in assay [1], expressed as Kd, was 930 nM.
